Data reported in patent US10429300B2, “Surface plasmon resonance approach to monitor protein-ligand interactions” (The Johns Hopkins University, priority 2015, dated 2019).
“Also recorded” adds a separate entry of the source.

B1: AaHII: Nav channel-selective α-scorpion toxin from Androctonus australis hector; model toxin (protein)
chain: VKDGYIVDDVNCTYFCGRNAYCNEECTKLKGESGYCQWASPYGNACYCYKLPDHVRTKGPGRCH
B2: CssIV: β-scorpion toxin from Centruroides suffusus suffusus (protein)
chain: KEGYLVNSYTGCKFECFKLGDNDYCLRECRQQYGKGSGGYCYAFGCWCTHLYEQAVVWPLPNKTCN

Assays:
[1] = molecular target: rNav1.2a/Kv2.1 VSD IV paddle chimera; test: Two-electrode voltage-clamp, rNav1.2a/Kv2.1 VSD IV paddle chimera in Xenopus oocytes; format: cell-based, rat
Excerpt: The DNA sequence of rat (r)Nav1.2a (provided by A. Goldin, University of California, Irvine, Irvine, Calif.), rKv2.1 (provided by K. J. Swartz, National Institutes of Health), and the rNav1.2a/Kv2.1 VSD II or IV chimera was confirmed by automated DNA sequencing, and cRNA was synthesized using T7 polymerase (mMessage mMachine™ kit; Life Technologies) after linearizing the DNA with appropriate restriction enzymes. Channels were expressed in Xenopus oocytes (obtained from Xenopus 1) and studied after a 1-d incubation after cRNA injection (incubated at 17° C. in 96 mM NaCl, 2 mM KCl, 5 mM HEPES, 1 mM MgCl2, 1.8 mM CaCl2, and 50 μg/ml gentamycin, pH 7.6 with NaOH) using two-electrode voltage-clamp recording techniques (OC-725C; Warner Instruments) with a 150-μl recording chamber. Data were filtered at 4 kHz and digitized at 20 kHz using pClamp™ 10 software (Molecular Devices). Microelectrode resistances were 0.5-1.5 MΩ when filled with 3 M KCl. For Kv chimera channel experiments, the external recording solution contained (mM): 50 KCl, 50 NaCl, 5 HEPES, 1 MgCl2, and 0.3 CaCl2, pH 7.6 with NaOH. For rNav1.2a experiments, the external recording solution contained (mM): 100 NaCl, 5 HEPES, 1 MgCl2, and 1.8 CaCl2, pH 7.6 with NaOH. All experiments were performed at ˜22° C. Leak and background conductances, identified by blocking the channel with agitoxin-2 (provided by K. J. Swartz), have been subtracted for all of the Kv channel currents shown. […] Voltage-activation relationships were obtained by measuring tail currents for Kv channels or steady-state currents and calculating conductance for Nav channels, and a single Boltzmann function was fitted to the data according to I/Imax=[1c+cexp(−zF(Vc−cV1/2)/RT)]^−1, where I/Imax is the normalized tail-current amplitude, z is the equivalent charge, V1/2 is the half-activation voltage, F is Faraday's constant, R is the gas constant, and T is temperature in kelvin. For all channels, voltage-activation relationships were recorded in the absence and presence of toxin. The ratio of currents (I/I0) recorded in the presence (I) and absence (I0) of toxin was calculated for voltages typically ranging from −140 to 10 cmV, depending on the construct. […] The apparent equilibrium dissociation constant (apparent KD) for Kv channels was calculated according to KD=((1/(1c−cFu^1/4))c−c1)[toxin], assuming four independent toxin-binding sites per channel. Results are given as mean±SEM unless noted otherwise. Offline data analysis was performed using Clampfit 10™ (Molecular Devices), Origin 8.0™ (OriginLab), and Excel™ (Microsoft). All chemicals were obtained from Sigma-Aldrich.
Representative sodium currents were elicited by a 50-ms depolarization to a suitable membrane voltage (−20 to −15 mV) before (black) and after toxin addition (green) from a holding voltage of −90 mV. […] For each toxin, K^+ currents were elicited by a 300-ms depolarization to 0 mV from a holding voltage of −90 mV (tail voltage was −60 mV). […] For each toxin, K^+ currents (top) were elicited by a 300-ms depolarization near the foot of the voltage-activation curve (bottom) from a holding voltage of −90 mV.

[2] = system: rNav1.2a/Kv2.1 VSD II paddle chimera; test: Two-electrode voltage-clamp, rNav1.2a/Kv2.1 VSD II paddle chimera in Xenopus oocytes; format: cell-based, rat
Excerpt: The DNA sequence of rat (r)Nav1.2a (provided by A. Goldin, University of California, Irvine, Irvine, Calif.), rKv2.1 (provided by K. J. Swartz, National Institutes of Health), and the rNav1.2a/Kv2.1 VSD II or IV chimera was confirmed by automated DNA sequencing, and cRNA was synthesized using T7 polymerase (mMessage mMachine™ kit; Life Technologies) after linearizing the DNA with appropriate restriction enzymes. Channels were expressed in Xenopus oocytes (obtained from Xenopus 1) and studied after a 1-d incubation after cRNA injection (incubated at 17° C. in 96 mM NaCl, 2 mM KCl, 5 mM HEPES, 1 mM MgCl2, 1.8 mM CaCl2, and 50 μg/ml gentamycin, pH 7.6 with NaOH) using two-electrode voltage-clamp recording techniques (OC-725C; Warner Instruments) with a 150-μl recording chamber. Data were filtered at 4 kHz and digitized at 20 kHz using pClamp™ 10 software (Molecular Devices). Microelectrode resistances were 0.5-1.5 MΩ when filled with 3 M KCl. For Kv chimera channel experiments, the external recording solution contained (mM): 50 KCl, 50 NaCl, 5 HEPES, 1 MgCl2, and 0.3 CaCl2, pH 7.6 with NaOH. For rNav1.2a experiments, the external recording solution contained (mM): 100 NaCl, 5 HEPES, 1 MgCl2, and 1.8 CaCl2, pH 7.6 with NaOH. All experiments were performed at ˜22° C. Leak and background conductances, identified by blocking the channel with agitoxin-2 (provided by K. J. Swartz), have been subtracted for all of the Kv channel currents shown. […]. After the addition of the toxin to the recording chamber, the equilibration between the toxin and the channel was monitored using weak depolarizations elicited at 5- or 10-s (R1629A/L1630A mutant) intervals. Voltage-activation relationships were obtained by measuring tail currents for Kv channels or steady-state currents and calculating conductance for Nav channels, and a single Boltzmann function was fitted to the data according to I/Imax=[1c+cexp(−zF(Vc−cV1/2)/RT)]^−1, where I/Imax is the normalized tail-current amplitude, z is the equivalent charge, V1/2 is the half-activation voltage, F is Faraday's constant, R is the gas constant, and T is temperature in kelvin. For all channels, voltage-activation relationships were recorded in the absence and presence of toxin. The ratio of currents (I/I0) recorded in the presence (I) and absence (I0) of toxin was calculated for voltages typically ranging from −140 to 10 cmV, depending on the construct. […] The apparent equilibrium dissociation constant (apparent KD) for Kv channels was calculated according to KD=((1/(1c−cFu^1/4))c−c1)[toxin], assuming four independent toxin-binding sites per channel. Results are given as mean±SEM unless noted otherwise. Offline data analysis was performed using Clampfit 10™ (Molecular Devices), Origin 8.0™ (OriginLab), and Excel™ (Microsoft). […]

rNav1.2a/Kv2.1 VSD II paddle chimera, sequence (P04775 832-856 limits assumed, stated change not applied): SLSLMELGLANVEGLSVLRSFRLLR
rNav1.2a/Kv2.1 VSD IV paddle chimera, sequence (P04775 1605-1636 limits assumed, stated change not applied): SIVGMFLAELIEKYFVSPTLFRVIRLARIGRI

Molecule | Kd ([1]; 100 nM AaHII, n=3, mean±SEM, read-out: apparent KD) [µM] | K+ current inhibition of VSD IV chimera ([1]; 100 nM toxin) | interaction with VSD II paddle chimera [2] | effect on VSD IV chimera voltage-activation relationship ([1]; 1 μM toxin) | concentration required to begin inhibiting the chimera [2] [µM] | depolarizing shift in V1/2 ([2]; 1 μM toxin, Boltzmann fit, n=3) [mV] | V1/2 in the presence of toxin ([2]; 1 μM toxin, control 33±2 mV) [mV]
B1 | 1.01 | influenced less; also recorded: influenced to a much lesser extent | no interaction was observed |  |  |  | 
B2 |  |  |  | does not influence | 1 | ~14 | 47±1
